According to the nanobody polyreactivity screen of Harvey et al. (2022):

Experiment: yeast display, Sf9 membrane polyspecificity reagent, FACS + sequencing; frameworks hold sequencing errors
Outline: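 A synthetic nanobody library was expressed on Saccharomyces cerevisiae BJ5465 by galactose induction for 36–48 hours. The library was stained for 1 hour at 4 °C with 10% biotinylated, detergent-solubilized Sf9 membrane reagent and enriched with streptavidin microbeads before FACS. Low and high (top ~1%) gates were set on anti-HA fluorescence for expression and streptavidin fluorescence for reagent binding, and each polyreactivity label reflects the gate of origin.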

Sequence: QVQLVESGGGLVQAGGSLRLSCAASGLTFRKNAMGWYRQAPGKERELVAAISFSGDRTYYADSVKGRFTISRDNAKNTVYLQMNSLKPEDTAVYYCAARSGVPGLEYDYWGQGTQVTVSS
- polyreactivity (PSR sort gate): low polyreactivity

Sequence: QVQLVESGGGLVQAGGSLRLSCAASGLTFRKNAMGWYRQAPGKERELVAAISTGGRTYYADSVKGRFTISRDNAKNTVYLQMNSLKPEDTAVYYFNSVSVKSGLDYWGQGTQVTVSS
- polyreactivity (PSR sort gate): high polyreactivity

Sequence: QVQLVESGGGLVQAGGSLRLSCAASGLTFRPYTMGWYRQAPGKERELVAAISARGGRTYYADSVKGRFTISRDNAKNTVYLQMNSLKPEDTAVYYCATLETTGVNYWGQGTQVTVSS
- polyreactivity (PSR sort gate): high polyreactivity

Sequence: QVQLVESGGGLVQAGGSLRLSCAASGLTFRRNAMGWYRQAPGKERELVAAITARGTSTYYADSVKGRFSISRDNAKNTVYLQMNSLKPEDTAVYYCNVRWHRTRSEYDYWGQGTQVTVSS
- polyreactivity (PSR sort gate): high polyreactivity

Sequence: QVQLVESGGGLVQAGGSLRLSCAASGLTFRRNAMGWYRQAPGKERELVAVNSRSGGSTYYADSVKGRFTISRDNAKNTVYLQMNCLKPEDTAVYYCNKRTRRTYDYWGQGTQVTVSS
- polyreactivity (PSR sort gate): high polyreactivity

Sequence: QVQLVESGGGLVQAGGSLRLSCAASGLTFRRYDMGWYRQAPGKERELVAAITGGGSTYYADSVKGRFTISRDNAKNTVYLQMNSLKPEDTAVYYCAAGTWYWSYAYDYWGQGTQVTVSS
- polyreactivity (PSR sort gate): high polyreactivity

Sequence: QVQLVESGGGLVQAGGSLRLSCAASGLTFRRYGMGWYRQAPGKERELVASISSRGGNTYYADSVKGRFTISRDNAKNTVYLQMNSLKPEDTAVYYCATGVSTRYEYWGQGTQVTVSS
- polyreactivity (PSR sort gate): high polyreactivity

Sequence: QVQLVESGGGLVQAGGSLRLSCAASGLTFRVYDMGWYRQAPGKERELVAAITGGGRTYYADSVKGRFTISRDNAKNTVYLQMNSLKPEDTAVYYCAARTRVTKREYDYWGQGTQVTVSS
- polyreactivity (PSR sort gate): high polyreactivity

Sequence: QVQLVESGGGLVQAGGSLRLSCAASGLTFRYNAMGWYRQAPGKERELVARISRNGGRTYYADSVKGRFTISRDNAKNTVYLQMNSLKPEDTAVYYCNVVYFVTTSPGYDYWGQGTQVTVSS
- polyreactivity (PSR sort gate): high polyreactivity

Sequence: QVQLVESGGGLVQAGGSLRLSCAASGLTFRYNTMGWYRQAPGKEREFVAAINYGGGSTYYADSVKGRFTISRDNAKNTVYLQMNSLKPEDTAVYYCARRTPRTPVTLYDYWGQGTQVTVSS
- polyreactivity (PSR sort gate): high polyreactivity

Sequence: QVQLVESGGGLVQAGGSLRLSCAASGLTFRYYAMGGYRQAPGKERELDAAITSSGTSTYYADSVKGRFTISRDNAKNTVSLQMNSLKPEDTAVYYCAARYSGGTWSGYNYWGQGTQVTVSS
- polyreactivity (PSR sort gate): high polyreactivity

Sequence: QVQLVESGGGLVQAGGSLRLSCAASGLTFRYYAMGWYRQAPGKERELVAAITRGARTNYADSVKGRFTISRDNAKNTVYLQMNSLKPEDTAVYYCNAGFTGLHRYGYWGQGTQVTVSS
- polyreactivity (PSR sort gate): high polyreactivity

Sequence: QVQLVESGGGLVQAGGSLRLSCAASGLTFRYYAMGWYRQAPGKERELVATITGSGGSTYYADSVKGRFTISRDNAKNTVYFQMNSLNPEYTAVYYCAATVRVYDYWGQGTQVNVSS
- polyreactivity (PSR sort gate): high polyreactivity

Sequence: QVQLVESGGGLVQAGGSLRLSCAASGLTFSGYAMGWYRQAPGKERELVAAISWRGGSTYYADSVKGRFTISRDNAKNTVYLQMNSLKPEDTAVYYCNRARVQDYPYYYWGQGTQVTVSS
- polyreactivity (PSR sort gate): high polyreactivity

Sequence: QVQLVESGGGLVQAGGSLRLSCAASGLTFSGYSMGWYRQAPGKERELVAAITSGGNTYYADSVNGRFTISRDNAKNTVYLQMNSLKPEDTAVYYCNVADWRRWGYDYWGQGTQVTVSS
- polyreactivity (PSR sort gate): low polyreactivity

Sequence: QVQLVESGGGLVQAGGSLRLSCAASGLTFSGYVMGWYRQAPGKERELVAAISSSGGRTYYADSVKGRFTISRDNAKNTVYLQMNSLKPEDTAVYYCAARNKYGGYPYGYDYWGQGTQVTVSS
- polyreactivity (PSR sort gate): high polyreactivity

Sequence: QVQLVESGGGLVQAGGSLRLSCAASGLTFSIYAMGWYREAPGKERELVAAITGRGGRTYYADSVKGRFTISRDNAKNTVYLQMHSLKPEDTAVYYCAARYRGTDFDYWGQGTQVTVSS
- polyreactivity (PSR sort gate): high polyreactivity

Sequence: QVQLVESGGGLVQAGGSLRLSCAASGLTFSIYAMGWYRQEPGKERELVARITWNSGSTYYADSVKGRFTISRDNAKNTVYLQMNSLKPEDTAVYYCNARFWGSGVGDLWEGVRYDYWGQGTQVTVSS
- polyreactivity (PSR sort gate): high polyreactivity

Sequence: QVQLVESGGGLVQAGGSLRLSCAASGLTFSKNVMGWYRQAPGKERELVAAISGITSSTYYADSVKGRFTISRDNAKNTVYLQMNSLKPEDTAVYYCAADLSFSRPGRFGYWGQGTQVTVSS
- polyreactivity (PSR sort gate): high polyreactivity

Sequence: QVQLVESGGGLVQAGGSLRLSCAASGLTFSKYVMGWYIQAPGKERELVAAITWSGGRTYYADSVKGRFTISRDNAKNTVYLQMNSLKPEDTAVYYCNRKLKGLGYEYDYWGQGTQVTVSS
- polyreactivity (PSR sort gate): high polyreactivity

Sequence: QVQLVESGGGLVQAGGSLRLSCAASGLTFSPNAMGWYRQAPRKERELVAAISSSGGRTNYADSVKGRFTISRDNAKNTVYLQMNSLKPEDTAFYYCAARFYKTYPRMNYWGQGTQVTVSS
- polyreactivity (PSR sort gate): high polyreactivity

Sequence: QVQLVESGGGLVQAGGSLRLSCAASGLTFSPYAMGWSRQAPGKERELVATITIGGSTKYADSVKGRFTISRDNAKNTVYLQMNSLKPEDSAVYYCAVRSGYVTRSYEYWGQGTQVTVSS
- polyreactivity (PSR sort gate): low polyreactivity

Sequence: QVQLVESGGGLVQAGGSLRLSCAASGLTFSRYAMGWYRQAPGKERELVAAISSSGTRTYYADSVKGRFTISPDNPKNTVYLQMNSLKPEDTAVYYCNAYYAPRGYGYWGQGTQVTVSS
- polyreactivity (PSR sort gate): high polyreactivity

Sequence: QVQLVESGGGLVQAGGSLRLSCAASGLTFSRYAMGWYRQAPGKERELVAAITWSGSSTYYADSVKGRFTISRDNAKNTVYLQMNSLKPEDTAVYYCAARYGYSRGPYYRSDYWGQGTQVNVSS
- polyreactivity (PSR sort gate): high polyreactivity

Sequence: QVQLVESGGGLVQAGGSLRLSCAASGLTFSVNAMGWYRQAPGKERELVAAINYGGGSTYYADSVKGRFTISRDNAKNTVYLQMNSLKPEDTAVYYCAAVPYPRGKGYDYWGQGTQVTVSS
- polyreactivity (PSR sort gate): high polyreactivity

Sequence: QVQLVESGGGLVQAGGSLRLSCAASGLTFSVYAMGWYRQAPGKERELVAAITSSGRTYYADSVKGRFTISRDNAKNTVYLQMNSLKPEDTAVYYCAAGYKSGPRRYYYWGQGTQVTVSS
- polyreactivity (PSR sort gate): high polyreactivity

Sequence: QVQLVESGGGLVQAGGSLRLSCAASGLTFSVYTMGWYRQAPGKERELVAAITTSGGRTYYADSVKGRFTISRDNAKNTVYLQMNSLKPVDPAVYYCAAVRTGDTTGTMGYWGQGTQVTVSS
- polyreactivity (PSR sort gate): high polyreactivity

Sequence: QVQLVESGGGLVQAGGSLRLSCAASGLTFSYYAMGWYRQAPGKERELVAAISWSGGITYYADSVKGRFKISRDNAKNTVYLQMNSLKPEDTAVYYCAADGYPTLFDYWGQGTQVTVAS
- polyreactivity (PSR sort gate): high polyreactivity

Sequence: QVQLVESGGGLVQAGGSLRLSCAASGLTFSYYAMGWYRQAPGKERELVAGISSSGGTTYYADSVKGRFTISRDNAKNTVYLQMNSLKPEDTAVYYCATRRHYGSFWYDYWGQGTQVTVSS
- polyreactivity (PSR sort gate): high polyreactivity

Sequence: QVQLVESGGGLVQAGGSLRLSCAASGLTFTAYAMGWYRQAPGKERELVAAISVRGGRTYYADSVKGRFTISRDNAKNTVYLQMNSLKPEDTAVYYCNAVRFISARYDYWGQGTQVTVSS
- polyreactivity (PSR sort gate): high polyreactivity

Sequence: QVQLVESGGGLVQAGGSLRLSCAASGLTFTGYAMGWYRQAPGKERELVAAISRGDSTYYAYSVNGRFTISRDNAKNTVYLQMNSLKPEDTAVYYCAAYKGYGRRPGVSGYYWGQGTQVTVSS
- polyreactivity (PSR sort gate): high polyreactivity

Sequence: QVQLVESGGGLVQAGGSLRLSCAASGLTFTKYAMGWYRQAPGKERELVAAINRRGGSTYYADSVKGRFTISRDNAKNTVYLQMNSLKPEDTAVYYCAKRKSVRSTPSYEYWGQGTQVTVSS
- polyreactivity (PSR sort gate): high polyreactivity

Sequence: QVQLVESGGGLVQAGGSLRLSCAASGLTFTRYDMGWYRQAPGKERELVASISQSGTSTHYADSVKGRFTISRDNAKNTVYLQMNSLKPEDTAVYYCAADYVSRYYVKWYRGFDYWGQGTQVTVSS
- polyreactivity (PSR sort gate): low polyreactivity

Sequence: QVQLVESGGGLVQAGGSLRLSCAASGLTFTTYAMGWSRQAPGKERELVAAISRRGSRTYYADSVKGRFTISRDNAKNTVYLQMNSLKPEDTAVYYCNALTGSFKTYSFDYWGQGTQVTVSS
- polyreactivity (PSR sort gate): high polyreactivity

Sequence: QVQLVESGGGLVQAGGSLRLSCAASGLTFTYYALGWYRQAPGKERELVAAISSSGSDTYYADSVKGRFTISRDNAKNTVYLQMNSLKPEDTAVYYCAAVLTGLSPDFEYEYWGQGTQVTVSS
- polyreactivity (PSR sort gate): low polyreactivity

Sequence: QVQLVESGGGLVQAGGSLRLSCAASGLTFTYYAMGWYRQAPGKERELVAAISWSGGSTYYADSVKGRFTISRDKAKNTVYLQMNSLKPEDTAVYYCAAVDPFTPYDRTYTTDGRESDYWGQGTQVTVSS
- polyreactivity (PSR sort gate): low polyreactivity

Sequence: QVQLVESGGGLVQAGGSLRLSCAASGLTFTYYAMGWYRQAPGKERELVAAITGGARTYYADSVKGRFTISRDNAKNTVYLQMNSLKPEDTAVYYCATQGAQKRYKYNYWGQGTQVTVSS
- polyreactivity (PSR sort gate): high polyreactivity

Sequence: QVQLVESGGGLVQAGGSLRLSCAASGLTFVDNAMGWYRQAPGQERELVAAITKRGGRTYYADSVKGRFTISRDNAKNTVYLQMNSLKPEDTAVNYCARESGNDSSRRLDYWGQGSQVTVSS
- polyreactivity (PSR sort gate): low polyreactivity

Sequence: QVQLVESGGGLVQAGGSLRLSCAASGLTFVDNAMGWYRQAPRKERELVAGITQSGGSTNYADSVKGRFTISRDNAKNTVYLQMNSLKPEDTAVYYCAKDTYRAYFRWEYGYWGQGTQVTVSS
- polyreactivity (PSR sort gate): low polyreactivity

Sequence: QVQLVESGGGLVQAGGSLRLSCAASGLTFVEYAMAWYRQAPGKERELVAAITSTDGTNYADSVKGRFTISRDNAKNTVYIQMNSLKPADTAVYYCFTLAQDFYFWYYYWGQGTQVTVSS
- polyreactivity (PSR sort gate): high polyreactivity

Sequence: QVQLVESGGGLVQAGGSLRLSCAASGLTFVKNVMGWYRQAPGKERELVAAISRRGGSTYYADSVKGRFTISRDNAKNTVYLQMNSLKPEDTAVYYCNAVLNQLSYIYPAVGYWGQGTQVTVSS
- polyreactivity (PSR sort gate): high polyreactivity

Sequence: QVQLVESGGGLVQAGGSLRLSCAASGLTFVNYAMGWYRQAPGKERELVATISKTGGSTYYADSVKGRFTISRDNAKNTVYLQMNSLKPEDTAVYYCAARRARRSGYYYWGQGTQVTVSS
- polyreactivity (PSR sort gate): high polyreactivity

Sequence: QVQLVESGGGLVQAGGSLRLSCAASGLTFVSYVMGWYRQAPGKERELVAAISSSGGRTYYADSVKGRFTISRDNAKNTVYLQMNSLKPEDTAVYYCAVYGYHEGGYWGQGTQVTVSS
- polyreactivity (PSR sort gate): high polyreactivity
